Read-outs that look alike come from different tables or passages of the source.

In assay [1] the target is T1, Gyp6 (S. cerevisiae (endogenous, purified …, UniProt P32806 1-458)).
T1 sequence: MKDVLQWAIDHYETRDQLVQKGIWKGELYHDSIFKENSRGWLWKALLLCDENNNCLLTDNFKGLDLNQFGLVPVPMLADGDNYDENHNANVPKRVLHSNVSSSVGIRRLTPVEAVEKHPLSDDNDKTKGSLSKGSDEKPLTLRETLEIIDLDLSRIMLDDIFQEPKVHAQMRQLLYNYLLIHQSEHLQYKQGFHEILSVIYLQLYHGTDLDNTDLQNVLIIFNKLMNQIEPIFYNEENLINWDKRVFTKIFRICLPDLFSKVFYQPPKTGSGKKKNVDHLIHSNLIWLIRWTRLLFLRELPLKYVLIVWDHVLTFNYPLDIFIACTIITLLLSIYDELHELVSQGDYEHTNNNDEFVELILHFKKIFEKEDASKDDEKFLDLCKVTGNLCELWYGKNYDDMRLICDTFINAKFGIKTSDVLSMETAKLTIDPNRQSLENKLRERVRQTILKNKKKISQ
The assay can be described thus: liposome flotation.

The next assay has as its target T2, Gdi1 (S. cerevisiae, UniProt P39958 1-451).
T2 sequence: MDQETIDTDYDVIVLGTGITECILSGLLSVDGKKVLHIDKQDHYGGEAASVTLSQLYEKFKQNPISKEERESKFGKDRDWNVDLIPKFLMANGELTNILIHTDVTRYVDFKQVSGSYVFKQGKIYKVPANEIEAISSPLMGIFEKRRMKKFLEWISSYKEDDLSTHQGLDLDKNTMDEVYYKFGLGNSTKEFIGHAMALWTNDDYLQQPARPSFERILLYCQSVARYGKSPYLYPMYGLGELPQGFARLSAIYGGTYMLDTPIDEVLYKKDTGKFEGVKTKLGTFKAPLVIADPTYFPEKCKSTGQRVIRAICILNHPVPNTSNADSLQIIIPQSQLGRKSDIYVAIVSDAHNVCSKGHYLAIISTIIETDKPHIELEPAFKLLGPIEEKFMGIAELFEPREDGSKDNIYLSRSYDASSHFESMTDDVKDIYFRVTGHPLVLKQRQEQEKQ
The assay can be described thus: SEC.

Assay [2] has as its target T1, Gyp6. The assay can be described thus: liposome flotation. This is another data set of the same source.
In a further assay the target is Sec7 (S. cerevisiae (endogenous, purified …, UniProt P11075 1-2009)). The assay can be described thus: liposome flotation.
Chain of Sec7 (S. cerevisiae (P11075 whole entry): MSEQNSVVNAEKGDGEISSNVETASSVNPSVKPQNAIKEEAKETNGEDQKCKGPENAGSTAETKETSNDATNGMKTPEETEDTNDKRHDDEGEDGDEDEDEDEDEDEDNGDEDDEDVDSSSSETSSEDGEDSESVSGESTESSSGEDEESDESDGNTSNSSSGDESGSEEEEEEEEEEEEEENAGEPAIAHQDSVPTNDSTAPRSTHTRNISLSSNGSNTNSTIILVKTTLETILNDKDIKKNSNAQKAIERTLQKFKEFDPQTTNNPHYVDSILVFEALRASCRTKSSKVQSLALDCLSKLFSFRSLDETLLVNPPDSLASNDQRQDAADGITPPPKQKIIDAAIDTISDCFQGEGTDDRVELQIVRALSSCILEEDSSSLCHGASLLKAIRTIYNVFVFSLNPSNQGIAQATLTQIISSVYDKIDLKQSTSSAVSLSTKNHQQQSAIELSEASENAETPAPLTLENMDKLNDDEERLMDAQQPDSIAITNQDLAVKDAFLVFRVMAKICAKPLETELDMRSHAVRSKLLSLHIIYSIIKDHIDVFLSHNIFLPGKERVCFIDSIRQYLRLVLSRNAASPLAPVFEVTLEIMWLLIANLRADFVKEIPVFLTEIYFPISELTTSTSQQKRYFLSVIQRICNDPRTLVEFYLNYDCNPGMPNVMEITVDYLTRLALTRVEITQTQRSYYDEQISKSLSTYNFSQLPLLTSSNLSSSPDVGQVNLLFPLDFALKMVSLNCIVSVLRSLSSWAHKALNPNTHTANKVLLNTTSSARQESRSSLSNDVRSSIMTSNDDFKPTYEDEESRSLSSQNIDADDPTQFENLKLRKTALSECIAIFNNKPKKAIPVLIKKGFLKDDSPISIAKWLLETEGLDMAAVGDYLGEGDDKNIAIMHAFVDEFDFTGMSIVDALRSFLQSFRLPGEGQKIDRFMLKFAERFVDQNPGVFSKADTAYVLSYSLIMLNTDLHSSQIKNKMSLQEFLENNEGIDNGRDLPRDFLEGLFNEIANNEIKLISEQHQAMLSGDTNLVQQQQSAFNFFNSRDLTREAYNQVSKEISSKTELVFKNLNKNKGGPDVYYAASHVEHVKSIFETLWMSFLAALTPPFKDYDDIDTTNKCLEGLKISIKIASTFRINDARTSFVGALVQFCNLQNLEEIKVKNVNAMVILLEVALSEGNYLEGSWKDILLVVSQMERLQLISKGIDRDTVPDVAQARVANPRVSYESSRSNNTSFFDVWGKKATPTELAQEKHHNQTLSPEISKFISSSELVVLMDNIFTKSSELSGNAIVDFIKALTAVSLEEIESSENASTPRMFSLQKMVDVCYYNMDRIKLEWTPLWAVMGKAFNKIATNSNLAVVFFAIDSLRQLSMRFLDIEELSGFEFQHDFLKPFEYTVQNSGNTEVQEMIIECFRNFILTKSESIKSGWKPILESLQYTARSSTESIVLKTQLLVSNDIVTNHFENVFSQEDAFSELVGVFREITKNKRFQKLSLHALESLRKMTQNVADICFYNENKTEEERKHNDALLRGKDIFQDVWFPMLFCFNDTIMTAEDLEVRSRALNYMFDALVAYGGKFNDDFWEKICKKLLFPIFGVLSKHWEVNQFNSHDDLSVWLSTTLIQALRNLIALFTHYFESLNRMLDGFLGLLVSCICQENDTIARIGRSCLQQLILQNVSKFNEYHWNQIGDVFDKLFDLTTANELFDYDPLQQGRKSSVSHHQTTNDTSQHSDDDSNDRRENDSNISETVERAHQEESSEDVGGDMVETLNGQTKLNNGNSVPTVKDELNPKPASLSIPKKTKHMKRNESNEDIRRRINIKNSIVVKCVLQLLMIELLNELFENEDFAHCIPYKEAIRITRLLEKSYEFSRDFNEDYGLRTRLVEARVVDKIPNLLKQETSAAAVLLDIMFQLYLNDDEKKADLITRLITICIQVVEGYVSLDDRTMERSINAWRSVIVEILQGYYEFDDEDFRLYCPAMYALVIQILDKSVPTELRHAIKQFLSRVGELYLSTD

B1: myristoylated Arl1 (natural protein)
chain: MGNIFSSMFDKLWGSNKELRILILGLDGAGKTTILYRLQIGEVVTTKPTIGFNVETLSYKNLKLNVWDLGGQTSIRPYWRCYYADTAAVIFVVDSTDKDRMSTASKELHLMLQEEELQDAALLVFANKQDQPGALSASEVSKELNLVELKDRSWSIVASSAIKGEGITEGLDWLIDVIKEEQL
modifications: N-myristoylated
Consider B1, for which, in the assay with Gyp6 [1], the binding result is “binds”.

B2: prenylated Ypt1 (natural protein)
chain: not shown
modifications: prenylated in vitro (geranylgeranyl pyrophosphate, GGTase)
With B2, in the assay with Gdi1, the binding result is “binds”.

B3: prenylated Ypt6 (natural protein)
chain: MSRSGKSLTKYKIVFLGEQGVGKTSLITRFMYDTFDDHYQATIGIDFLSKTMYLDDKTIRLQLWDTAGQERFRSLIPSYIRDSRVAIIVYDITKRKSFEYIDKWIEDVKNERGDENVILCIVGNKSDLSDERQISTEEGEKKAKLLGAKIFMETSTKAGYNVKALFKKIAKSLPEFQNSESTPLDSENANSANQNKPGVIDISTAEEQEQSACQC
modifications: prenylated in vitro (geranylgeranyl pyrophosphate, GGTase)
As to B3, the binding result with Gdi1 is listed as “binds”.

B4: prenylated Ypt32 (natural protein)
chain: MSNEDYGYDYDYLFKIVLIGDSGVGKSNLLSRFTTDEFNIESKSTIGVEFATRTIEVENKKIKAQIWDTAGQERYRAITSAYYRGAVGALIVYDISKSSSYENCNHWLTELRENADDNVAVGLIGNKSDLAHLRAVPTDEAKNFAMENQMLFTETSALNSDNVDKAFRELIVAIFQMVSKHQVDLSGSGTNNMGSNGAPKGPTISLTPAPKEDKKKKSSNCC
modifications: prenylated in vitro (geranylgeranyl pyrophosphate, GGTase)
Take B4: the binding result with Gyp6 [2], with Gdi1 and with Sec7 was “binds” in each case.

Values taken from paper PMC8351538 (Molecular Biology of the Cell, 2021).
